# Read-outs that look alike come from different tables or passages of the source.
# Experiments:
# Assay in all cases: fluorescence polarisation
# [1] = molecular target: U1‐70K BAD1 255–278 (human) (UniProt P08621)
# [2] = molecular target: SRSF1 RRM1 (residues 14–90), Alexa Fluor 488 labelled (human) (UniProt Q07955)
# [3] = molecular target: SRSF1 RRM1 (residues 14–90), Alexa Fluor 488 labelled (human) (UniProt Q07955); remark: listed apart in the source
# [4] = molecular target: Hyper‐phosphorylated SRSF1 (phosphorylated by Clk1), Alexa Fluor 488 labelled at T248C (human) (UniProt Q07955)
# Chain of Hyper‐phosphorylated SRSF1 (phosphorylated by Clk1), Alexa Fluor 488 labelled at T248C (human) (Q07955 whole entry T248C): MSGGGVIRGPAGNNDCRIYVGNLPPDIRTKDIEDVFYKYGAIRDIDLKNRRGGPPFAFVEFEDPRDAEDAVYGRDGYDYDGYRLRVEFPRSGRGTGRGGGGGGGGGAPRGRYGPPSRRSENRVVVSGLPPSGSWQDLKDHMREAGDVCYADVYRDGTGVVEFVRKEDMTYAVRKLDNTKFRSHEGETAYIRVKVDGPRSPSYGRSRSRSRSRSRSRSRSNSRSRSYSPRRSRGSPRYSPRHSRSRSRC
# Chain of U1‐70K RRM (residues 64–202) (P08621 64-202): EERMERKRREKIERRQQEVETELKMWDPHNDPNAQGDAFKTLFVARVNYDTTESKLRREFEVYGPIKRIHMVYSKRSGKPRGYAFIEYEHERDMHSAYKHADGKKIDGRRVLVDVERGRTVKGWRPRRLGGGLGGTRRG
# Chain of U1‐70K BAD1 (residues 229–306) (P08621 229-306): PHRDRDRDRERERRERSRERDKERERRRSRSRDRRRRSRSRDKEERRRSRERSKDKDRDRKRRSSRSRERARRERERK
# Chain of Hyper phosphorylated SRSF1 RS (residues 199–248), unlabelled (Q07955 199-248): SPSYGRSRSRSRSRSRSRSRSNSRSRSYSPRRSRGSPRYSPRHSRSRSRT
# Chain of U1‐70K RRM 92–202 (P08621 92-202): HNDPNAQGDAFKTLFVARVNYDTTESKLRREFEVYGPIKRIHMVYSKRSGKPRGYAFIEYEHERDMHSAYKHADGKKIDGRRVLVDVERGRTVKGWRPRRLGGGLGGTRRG
Substance,Kd [2] [µM],Kd [3] [µM],other results
"Hyper phosphorylated SRSF1 RS (residues 199–248), unlabelled (from UniProt Q07955 199-248) (domain or fragment)",,,Kd [1]: 2 µM
U1‐70K RRM (residues 64–202) (from UniProt P08621 64-202) (domain or fragment),6,3,
U1‐70K RRM 92–202 (from UniProt P08621 92-202) (domain or fragment),7,,
U1‐70K ΔBAD2 (domain or fragment),,,Kd [4]: 0.65 µM
U1‐70K BAD1 (residues 229–306) (from UniProt P08621 229-306) (domain or fragment),,0.24,
